In patent US20250339569A1 (3B PHARMACEUTICALS, published 2025):
Starred links: 1 amine or outer side, 2 acyl side, 3 side chain; linkers in the order of their positions; H or OH if unused. Positions of bridges follow the written chain, without caps; N, C: chain ends. Non-standard residues stand in square brackets, D forms with d. Primed or numbered codes have the meaning given here. ξ: configuration not given here. *: point of attachment. Ttds = 1,13-diamino-4,7,10-trioxatridecan-succinamic acid spacer, NCCCOCCOCCOCCCNC(=O)CCC(=O)*; APAc″ = 2-(4-(amino)piperidin-1-yl)acetic acid, NC1CCN(CC(=O)*)CC1; DOTA = O=C(O)CN1CCN(CC(=O)O)CCN(CC(=O)*)CCN(CC(=O)O)CC1; Trp(5-Cl) = N[C@@H](Cc1c[nH]c2ccc(Cl)cc12)C(=O)O; ξTrp(5-Me) = Cc1ccc2[nH]cc(CC(N)C(=O)O)c2c1; Ttds(3) = NCCCOCCOCCOCCCNC(=O)CCC(=O)*; 1Nal = N[C@@H](Cc1cccc2ccccc12)C(=O)O; mXylylene = c1cc(C[*:1])cc(C[*:2])c1; Bta = N[C@@H](Cc1csc2ccccc12)C(=O)O; Hydrocinnamoyl = O=C(CCc1ccccc1)*; tBuAla = CC(C)(C)C[C@H](N)C(=O)O; Pen = CC(C)(S)[C@H](N)C(=O)O; Isovaleryl = CC(C)CC(=O)*; dPip = O=C(O)[C@H]1CCCCN1; Nle = CCCC[C@H](N)C(=O)O; 4Amc = not defined here; Bz′ = not defined here; Hexanoyl = CCCCCC(=O)*; PhAc = O=C(Cc1ccccc1)*; AEEA = NCCOCCOCC(=O)O; Aib = CC(C)(N)C(=O)O; Sar = CNCC(=O)O

Target: human carbonic anhydrase 9 (CAIX) (human, UniProt Q16790 38-459)
Experiment: FACS competition on HT-29 cells against tracer 3BP-2776; pIC50 category A = pIC50 >8.0

B1: 3BP-3109 (peptide)
peptide: PhAc-VYCEGDWLTWQC-NH2
modifications: linker 3-12 via mXylylene
SMILES: CC(C)C[C@@H]1NC(=O)[C@H](Cc2c[nH]c3ccccc23)NC(=O)[C@H](CC(=O)O)NC(=O)CNC(=O)[C@H](CCC(=O)O)NC(=O)[C@@H](NC(=O)[C@H](Cc2ccc(O)cc2)NC(=O)[C@@H](NC(=O)Cc2ccccc2)C(C)C)CSCc2cccc(c2)CSC[C@@H](C(N)=O)NC(=O)[C@H](CCC(N)=O)NC(=O)[C@H](Cc2c[nH]c3ccccc23)NC(=O)[C@H]([C@@H](C)O)NC1=O
pIC50: > 8 pic50

B2: 3BP-3314 (peptide)
peptide: Ac-VYCE[Sar]D[1Nal]LTWQC-NH2
modifications: linker 3-12 via mXylylene
SMILES: CC(=O)N[C@H](C(=O)N[C@@H](Cc1ccc(O)cc1)C(=O)N[C@H]1CSCc2cccc(c2)CSC[C@@H](C(N)=O)NC(=O)[C@H](CCC(N)=O)NC(=O)[C@H](Cc2c[nH]c3ccccc23)NC(=O)[C@H]([C@@H](C)O)NC(=O)[C@H](CC(C)C)NC(=O)[C@H](Cc2cccc3ccccc23)NC(=O)[C@H](CC(=O)O)NC(=O)CN(C)C(=O)[C@H](CCC(=O)O)NC1=O)C(C)C
notes: also called Ac-Val-Tyr-[Cys(3MeBn)-Glu-Nmg-Asp-1Ni-Leu-Thr-Trp-Gln-Cys]-NH2
pIC50: > 8 pic50

{DOTA-Ttds}-VYCEGDWLTWQC-NH2 (linker 3-12 via mXylylene) [3BP-2959]
pIC50: > 8 pic50

B3: 3BP-3867 (peptide)
peptide: {DOTA-APAc″}-YCE[dP]DWLTWSC-NH2
modifications: linker 2-11 via mXylylene
notes: also called DOTA-APAc-Tyr-[Cys(3MeBn)-Glu-pro-Asp-Trp-Leu-Thr-Trp-Ser-Cys]-NH2
pIC50: > 8 pic50

B4: 3BP-3060 (peptide)
peptide: Ac-VYCE[Sar]DWLTWQC-NH2
modifications: linker 3-12 via mXylylene
SMILES: CC(=O)N[C@H](C(=O)N[C@@H](Cc1ccc(O)cc1)C(=O)N[C@H]1CSCc2cccc(c2)CSC[C@@H](C(N)=O)NC(=O)[C@H](CCC(N)=O)NC(=O)[C@H](Cc2c[nH]c3ccccc23)NC(=O)[C@H]([C@@H](C)O)NC(=O)[C@H](CC(C)C)NC(=O)[C@H](Cc2c[nH]c3ccccc23)NC(=O)[C@H](CC(=O)O)NC(=O)CN(C)C(=O)[C@H](CCC(=O)O)NC1=O)C(C)C
notes: also called Ac-Val-Tyr-[Cys(3MeBn)-Glu-Nmg-Asp-Trp-Leu-Thr-Trp-Gln-Cys]-NH2
pIC50: > 8 pic50

{Bz′}-VYCEGDWLTWQC-NH2 (linker 3-12 via mXylylene) [3BP-3108]
pIC50: > 8 pic50

B5: 3BP-3870 (peptide)
peptide: {DOTA-Ttds(3)}-[Nle]YCE[dP]DWLTWSC-NH2
modifications: linker 3-12 via mXylylene
notes: also called DOTA-Ttds-Nle-Tyr-[Cys(3MeBn)-Glu-pro-Asp-Trp-Leu-Thr-Trp-Ser-Cys]-NH2
pIC50: > 8 pic50

B6: 3BP-3065 (peptide)
peptide: Ac-VYCEGDW[tBuAla]TWQC-NH2
modifications: linker 3-12 via mXylylene
SMILES: CC(=O)N[C@H](C(=O)N[C@@H](Cc1ccc(O)cc1)C(=O)N[C@H]1CSCc2cccc(c2)CSC[C@@H](C(N)=O)NC(=O)[C@H](CCC(N)=O)NC(=O)[C@H](Cc2c[nH]c3ccccc23)NC(=O)[C@H]([C@@H](C)O)NC(=O)[C@H](CC(C)(C)C)NC(=O)[C@H](Cc2c[nH]c3ccccc23)NC(=O)[C@H](CC(=O)O)NC(=O)CNC(=O)[C@H](CCC(=O)O)NC1=O)C(C)C
notes: also called Ac-Val-Tyr-[Cys(3MeBn)-Glu-Gly-Asp-Trp-Npg-Thr-Trp-Gln-Cys]-NH2
pIC50: > 8 pic50

B7: 3BP-3868 (peptide)
peptide: {DOTA-4Amc}-YCE[dP]DWLTWSC-NH2
modifications: linker 2-11 via mXylylene; reading uncertain
notes: also called DOTA-4Amc-Tyr-[Cys(3MeBn)-Glu-pro-Asp-Trp-Leu-Thr-Trp-Ser-Cys]-NH2
pIC50: > 8 pic50

B8: 3BP-3271 (peptide)
peptide: {DOTA-Ttds(3)}-VYCE[Sar]DWLTWQC-NH2
modifications: linker 3-12 via mXylylene
notes: also called DOTA-Ttds-Val-Tyr-[Cys(3MeBn)-Glu-Nmg-Asp-Trp-Leu-Thr-Trp-Gln-Cys]-NH2
pIC50: > 8 pic50

B9: 3BP-3869 (peptide)
peptide: {DOTA-AEEA}-YCE[dP]DWLTWSC-NH2
modifications: linker 2-11 via mXylylene
SMILES: CC(C)C[C@@H]1NC(=O)[C@H](Cc2c[nH]c3ccccc23)NC(=O)[C@H](CC(=O)O)NC(=O)[C@H]2CCCN2C(=O)[C@H](CCC(=O)O)NC(=O)[C@@H](NC(=O)[C@H](Cc2ccc(O)cc2)NC(=O)COCCOCCNC(=O)CN2CCN(CC(=O)O)CCN(CC(=O)O)CCN(CC(=O)O)CC2)CSCc2cccc(c2)CSC[C@@H](C(N)=O)NC(=O)[C@H](CO)NC(=O)[C@H](Cc2c[nH]c3ccccc23)NC(=O)[C@H]([C@@H](C)O)NC1=O
notes: also called DOTA-O2Oc-Tyr-[Cys(3MeBn)-Glu-pro-Asp-Trp-Leu-Thr-Trp-Ser-Cys]-NH2
pIC50: > 8 pic50

B10: 3BP-3064 (peptide)
peptide: Ac-VYCEGDWLTWQ[Pen]-NH2
modifications: linker 3-12 via mXylylene
SMILES: CC(=O)N[C@H](C(=O)N[C@@H](Cc1ccc(O)cc1)C(=O)N[C@H]1CSCc2cccc(c2)CSC(C)(C)[C@@H](C(N)=O)NC(=O)[C@H](CCC(N)=O)NC(=O)[C@H](Cc2c[nH]c3ccccc23)NC(=O)[C@H]([C@@H](C)O)NC(=O)[C@H](CC(C)C)NC(=O)[C@H](Cc2c[nH]c3ccccc23)NC(=O)[C@H](CC(=O)O)NC(=O)CNC(=O)[C@H](CCC(=O)O)NC1=O)C(C)C
pIC50: > 8 pic50

B11: 3BP-3289 (peptide)
peptide: Ac-VYCE[Sar]D[Trp(5-Cl)]LTWQC-NH2
modifications: linker 3-12 via mXylylene
SMILES: CC(=O)N[C@H](C(=O)N[C@@H](Cc1ccc(O)cc1)C(=O)N[C@H]1CSCc2cccc(c2)CSC[C@@H](C(N)=O)NC(=O)[C@H](CCC(N)=O)NC(=O)[C@H](Cc2c[nH]c3ccccc23)NC(=O)[C@H]([C@@H](C)O)NC(=O)[C@H](CC(C)C)NC(=O)[C@H](Cc2c[nH]c3ccc(Cl)cc23)NC(=O)[C@H](CC(=O)O)NC(=O)CN(C)C(=O)[C@H](CCC(=O)O)NC1=O)C(C)C
notes: also called Ac-Val-Tyr-[Cys(3MeBn)-Glu-Nmg-Asp-5Clw-Leu-Thr-Trp-Gln-Cys]-NH2
pIC50: > 8 pic50

B12: 3BP-3107 (peptide)
peptide: Hexanoyl-VYCEGDWLTWQC-NH2
modifications: linker 3-12 via mXylylene
SMILES: CCCCCC(=O)N[C@H](C(=O)N[C@@H](Cc1ccc(O)cc1)C(=O)N[C@H]1CSCc2cccc(c2)CSC[C@@H](C(N)=O)NC(=O)[C@H](CCC(N)=O)NC(=O)[C@H](Cc2c[nH]c3ccccc23)NC(=O)[C@H]([C@@H](C)O)NC(=O)[C@H](CC(C)C)NC(=O)[C@H](Cc2c[nH]c3ccccc23)NC(=O)[C@H](CC(=O)O)NC(=O)CNC(=O)[C@H](CCC(=O)O)NC1=O)C(C)C
pIC50: > 8 pic50

B13: 3BP-3311 (peptide)
peptide: Ac-VYCE[Sar]D[Bta]LTWQC-NH2
modifications: linker 3-12 via mXylylene
SMILES: CC(=O)N[C@H](C(=O)N[C@@H](Cc1ccc(O)cc1)C(=O)N[C@H]1CSCc2cccc(c2)CSC[C@@H](C(N)=O)NC(=O)[C@H](CCC(N)=O)NC(=O)[C@H](Cc2c[nH]c3ccccc23)NC(=O)[C@H]([C@@H](C)O)NC(=O)[C@H](CC(C)C)NC(=O)[C@H](Cc2csc3ccccc23)NC(=O)[C@H](CC(=O)O)NC(=O)CN(C)C(=O)[C@H](CCC(=O)O)NC1=O)C(C)C
notes: also called Ac-Val-Tyr-[Cys(3MeBn)-Glu-Nmg-Asp-Bta-Leu-Thr-Trp-Gln-Cys]-NH2
pIC50: > 8 pic50

B14: 3BP-3110 (peptide)
peptide: Hydrocinnamoyl-VYCEGDWLTWQC-NH2
modifications: linker 3-12 via mXylylene
SMILES: CC(C)C[C@@H]1NC(=O)[C@H](Cc2c[nH]c3ccccc23)NC(=O)[C@H](CC(=O)O)NC(=O)CNC(=O)[C@H](CCC(=O)O)NC(=O)[C@@H](NC(=O)[C@H](Cc2ccc(O)cc2)NC(=O)[C@@H](NC(=O)CCc2ccccc2)C(C)C)CSCc2cccc(c2)CSC[C@@H](C(N)=O)NC(=O)[C@H](CCC(N)=O)NC(=O)[C@H](Cc2c[nH]c3ccccc23)NC(=O)[C@H]([C@@H](C)O)NC1=O
pIC50: > 8 pic50

B15: 3BP-3111 (peptide)
peptide: Isovaleryl-VYCEGDWLTWQC-NH2
modifications: linker 3-12 via mXylylene
SMILES: CC(C)CC(=O)N[C@H](C(=O)N[C@@H](Cc1ccc(O)cc1)C(=O)N[C@H]1CSCc2cccc(c2)CSC[C@@H](C(N)=O)NC(=O)[C@H](CCC(N)=O)NC(=O)[C@H](Cc2c[nH]c3ccccc23)NC(=O)[C@H]([C@@H](C)O)NC(=O)[C@H](CC(C)C)NC(=O)[C@H](Cc2c[nH]c3ccccc23)NC(=O)[C@H](CC(=O)O)NC(=O)CNC(=O)[C@H](CCC(=O)O)NC1=O)C(C)C
pIC50: > 8 pic50

B16: 3BP-3859 (peptide)
peptide: {DOTA}-YCE[dP]DWLTWSC-NH2
modifications: linker 2-11 via mXylylene
SMILES: CC(C)C[C@@H]1NC(=O)[C@H](Cc2c[nH]c3ccccc23)NC(=O)[C@H](CC(=O)O)NC(=O)[C@H]2CCCN2C(=O)[C@H](CCC(=O)O)NC(=O)[C@@H](NC(=O)[C@H](Cc2ccc(O)cc2)NC(=O)CN2CCN(CC(=O)O)CCN(CC(=O)O)CCN(CC(=O)O)CC2)CSCc2cccc(c2)CSC[C@@H](C(N)=O)NC(=O)[C@H](CO)NC(=O)[C@H](Cc2c[nH]c3ccccc23)NC(=O)[C@H]([C@@H](C)O)NC1=O
notes: also called DOTA-Tyr-[Cys(3MeBn)-Glu-pro-Asp-Trp-Leu-Thr-Trp-Ser-Cys]-NH2
pIC50: > 8 pic50

B17: 3BP-3283 (peptide)
peptide: Ac-VYCE[dPip]DWLTWAC-NH2
modifications: linker 3-12 via mXylylene
SMILES: CC(=O)N[C@H](C(=O)N[C@@H](Cc1ccc(O)cc1)C(=O)N[C@H]1CSCc2cccc(c2)CSC[C@@H](C(N)=O)NC(=O)[C@H](C)NC(=O)[C@H](Cc2c[nH]c3ccccc23)NC(=O)[C@H]([C@@H](C)O)NC(=O)[C@H](CC(C)C)NC(=O)[C@H](Cc2c[nH]c3ccccc23)NC(=O)[C@H](CC(=O)O)NC(=O)[C@H]2CCCCN2C(=O)[C@H](CCC(=O)O)NC1=O)C(C)C
notes: also called Ac-Val-Tyr-[Cys(3MeBn)-Glu-pip-Asp-Trp-Leu-Thr-Trp-Ala-Cys]-NH2
pIC50: > 8 pic50

B18: 3BP-3059 (peptide)
peptide: Ac-VYCE[Aib]DWLTWQC-NH2
modifications: linker 3-12 via mXylylene
SMILES: CC(=O)N[C@H](C(=O)N[C@@H](Cc1ccc(O)cc1)C(=O)N[C@H]1CSCc2cccc(c2)CSC[C@@H](C(N)=O)NC(=O)[C@H](CCC(N)=O)NC(=O)[C@H](Cc2c[nH]c3ccccc23)NC(=O)[C@H]([C@@H](C)O)NC(=O)[C@H](CC(C)C)NC(=O)[C@H](Cc2c[nH]c3ccccc23)NC(=O)[C@H](CC(=O)O)NC(=O)C(C)(C)NC(=O)[C@H](CCC(=O)O)NC1=O)C(C)C
notes: also called Ac-Val-Tyr-[Cys(3MeBn)-Glu-Aib-Asp-Trp-Leu-Thr-Trp-Gln-Cys]-NH2
pIC50: > 8 pic50

B19: 3BP-3290 (peptide)
peptide: Ac-VYCE[Sar]D[ξTrp(5-Me)]LTWQC-NH2
modifications: linker 3-12 via mXylylene; not fully specified; also: position 7 is DL-5-methyltryptophan, configuration not given here
notes: also called Ac-Val-Tyr-[Cys(3MeBn)-Glu-Nmg-Asp-Egc-Leu-Thr-Trp-Gln-Cys]-NH2
pIC50: > 8 pic50
